Measurements from US20150266977A1 (AbbVie / Abbott, published 2015).

T1: recombinant human sclerostin (human, UniProt Q9BQB4 24-213)
T1 construct: biotinylated in the ELISAs; also called hu sclerostin; hu scl
T1 sequence: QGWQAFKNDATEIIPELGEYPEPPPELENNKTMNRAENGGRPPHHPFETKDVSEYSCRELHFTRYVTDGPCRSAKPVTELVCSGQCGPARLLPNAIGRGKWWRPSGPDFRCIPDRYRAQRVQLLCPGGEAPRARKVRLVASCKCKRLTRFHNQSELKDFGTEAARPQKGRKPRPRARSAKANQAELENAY

B1: MAK199-1-GS-AE10-6 AM7 (bispecific antibody, human IgG1, lambda, L234A L235A)
heavy: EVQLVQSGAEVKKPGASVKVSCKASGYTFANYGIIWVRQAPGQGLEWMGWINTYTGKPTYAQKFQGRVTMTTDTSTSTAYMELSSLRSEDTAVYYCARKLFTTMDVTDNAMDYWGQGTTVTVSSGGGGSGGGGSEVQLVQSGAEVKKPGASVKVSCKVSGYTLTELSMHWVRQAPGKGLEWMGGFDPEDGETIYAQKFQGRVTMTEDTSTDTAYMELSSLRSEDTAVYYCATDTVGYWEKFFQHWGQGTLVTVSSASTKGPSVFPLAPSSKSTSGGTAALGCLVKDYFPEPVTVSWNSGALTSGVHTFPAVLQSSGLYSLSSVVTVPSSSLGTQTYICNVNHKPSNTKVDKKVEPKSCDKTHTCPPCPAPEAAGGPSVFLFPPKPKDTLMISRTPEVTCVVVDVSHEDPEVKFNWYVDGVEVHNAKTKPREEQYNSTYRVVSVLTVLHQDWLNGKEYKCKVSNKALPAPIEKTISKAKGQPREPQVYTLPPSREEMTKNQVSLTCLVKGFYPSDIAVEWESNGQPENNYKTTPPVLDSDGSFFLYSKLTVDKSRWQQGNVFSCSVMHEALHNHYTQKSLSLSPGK
light: DIQMTQSPSSLSASVGDRVTITCRASQDISQYLNWYQQKPGKAPKLLIYYTSRLQSGVPSRFSGSGSGTDFTLTISSLQPEDFATYFCQQGNTWPPTFGQGTKLEIKRGGSGGGGSGQAVVTQEPSLTVSPGGTVTLTCGSSTGTVTIDHYPYWFQQKPGQAPRTLISDTDDKHSWTPARFSGSLLGGKAALTLSGAQPEDEAEYYCLLDYGGRFVFGGGTKLTVLGQPKAAPSVTLFPPSSEELQANKATLVCLISDFYPGAVTVAWKADSSPVKAGVETTTPSKQSNNKYAASSYLSLTPEQWKSHRSYSCQVTHEGSTVEKTVAPTECS
notes: DVD-Ig: outer MAK199-1, inner AE10-6 AM7; also called MAK199-1-GS-AM10-6 AM7; MAK199-1GSAM10-6 AM7
B2: MAK199-1-SS-AE10-6 AM7 (bispecific antibody, human IgG1, lambda, L234A L235A)
heavy: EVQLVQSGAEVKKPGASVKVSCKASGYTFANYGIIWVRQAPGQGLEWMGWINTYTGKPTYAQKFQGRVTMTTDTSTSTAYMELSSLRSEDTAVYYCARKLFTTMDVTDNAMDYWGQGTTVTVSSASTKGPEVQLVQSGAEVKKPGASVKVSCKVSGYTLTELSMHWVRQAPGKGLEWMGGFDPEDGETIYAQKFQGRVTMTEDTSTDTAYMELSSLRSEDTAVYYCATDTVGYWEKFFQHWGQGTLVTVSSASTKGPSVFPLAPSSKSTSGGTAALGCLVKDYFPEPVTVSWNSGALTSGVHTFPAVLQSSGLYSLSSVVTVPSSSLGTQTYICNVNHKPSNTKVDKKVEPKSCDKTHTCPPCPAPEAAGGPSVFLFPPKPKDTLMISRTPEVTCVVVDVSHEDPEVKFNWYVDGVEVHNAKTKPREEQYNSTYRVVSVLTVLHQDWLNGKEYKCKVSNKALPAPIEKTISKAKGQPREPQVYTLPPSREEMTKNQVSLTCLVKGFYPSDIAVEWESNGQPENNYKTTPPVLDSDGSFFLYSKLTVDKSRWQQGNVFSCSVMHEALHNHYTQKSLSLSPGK
light: DIQMTQSPSSLSASVGDRVTITCRASQDISQYLNWYQQKPGKAPKLLIYYTSRLQSGVPSRFSGSGSGTDFTLTISSLQPEDFATYFCQQGNTWPPTFGQGTKLEIKRTVAAPQAVVTQEPSLTVSPGGTVTLTCGSSTGTVTIDHYPYWFQQKPGQAPRTLISDTDDKHSWTPARFSGSLLGGKAALTLSGAQPEDEAEYYCLLDYGGRFVFGGGTKLTVLGQPKAAPSVTLFPPSSEELQANKATLVCLISDFYPGAVTVAWKADSSPVKAGVETTTPSKQSNNKYAASSYLSLTPEQWKSHRSYSCQVTHEGSTVEKTVAPTECS
notes: DVD-Ig: outer MAK199-1, inner AE10-6 AM7
B3: MSK13 (antibody, V domains shown)
VH: EMQLVQSGAEVKKPGASVKVSCKASGYTFSGYYMNWVRQAPGQGLEWMGWINPYSGAATYAQDFQGRITVTRDTSISTGYMELTRLTSTDTAVYYCARGGTITGASWYFDVWGRGTLVTVSS
VL: DIVMTQTPLSLPVTLGQPASISCRSSQSLVHSDGNTYLNWFQQRPGQSPRRLIYKVSNRDSGVPDRFSGSGSGTDFTLKISRVEAEDVGVYYCMQGTHWPQLTFGGGTKVEIKR
notes: fully human mAb
B4: MSK21 (antibody, V domains shown)
VH: EVQLQQSGPGLVKPSQTLSLTCAISGDSVSSNIVAWNWIRQSPSRGLEWLGRTYYTSKWFNQYAMSVKSRITINPDTSKNQVSLKLSSVTAADTAAYYCARVGGTYDFWSGYYRPYYYGMDVWGQGTMVTVSS
VL: DIRLTQSPSSLSASIGDTVTISCRSSQPINTHLNWFRQLPGRAPELLIYGSSSLHTGVPSRFSGSGSGTDFTLTITSLQRGDFLTYYCQQTHRLPITFGQGTRLDIKR
notes: fully human mAb

How the values were obtained:
[1] = target: T2, recombinant human TNF-α (human, UniProt P01375 77-233); assay: cell-based or functional assay
T2 sequence (P01375 77-233 limits assumed): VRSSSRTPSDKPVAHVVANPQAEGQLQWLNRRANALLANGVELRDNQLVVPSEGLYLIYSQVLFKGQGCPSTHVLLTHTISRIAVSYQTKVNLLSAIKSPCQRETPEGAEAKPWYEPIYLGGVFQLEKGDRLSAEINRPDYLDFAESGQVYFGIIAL

[2] = target: Rhesus/cynoTNFa (Rhesus/cyno); assay: cell-based or functional assay
Chain of Rhesus/cynoTNFa (Rhesus/cyno) (P48094 whole entry): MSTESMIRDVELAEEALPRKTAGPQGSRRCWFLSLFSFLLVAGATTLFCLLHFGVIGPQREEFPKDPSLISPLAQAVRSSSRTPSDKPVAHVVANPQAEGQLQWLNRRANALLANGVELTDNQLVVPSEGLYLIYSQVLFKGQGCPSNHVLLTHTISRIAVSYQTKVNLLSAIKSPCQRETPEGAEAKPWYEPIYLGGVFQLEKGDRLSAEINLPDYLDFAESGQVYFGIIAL

[3] = target: T2, recombinant human TNF-α; assay: cell-based or functional assay; remark: listed apart in the source
[4] = target: T3, recombinant cynomolgus monkey sclerostin (cynomolgus monkey); assay: SPR
T3 construct: also called cyno sclerostin; Cyno sclerostin

[5] = target: T2, recombinant human TNF-α; assay: SPR
[6] = target: T1, recombinant human sclerostin; assay: SPR
[7] = target: T1, recombinant human sclerostin; assay: direct bind ELISA

Binder	L929 TNF neutralization IC50 with 50 nM SOST [1] [nM]	L929 TNF neutralization IC50 without 50 nM SOST [1] [nM]	L929 TNF neutralization IC50 [2] [nM]	L929 TNF neutralization IC50 [3] [nM]	Kd [4] [nM]	koff [4] [s⁻¹]	kon [4] [M⁻¹ s⁻¹]	Kd [5] [nM]	koff [5] [s⁻¹]	kon [5] [M⁻¹ s⁻¹]	Kd [6] [nM]	koff [6] [s⁻¹]	kon [6] [M⁻¹ s⁻¹]	binding result [7]
B1	0.036	0.025	0.042	0.0677	< 0.00011	< 1e-06	9.3e+06	0.027	5.8e-05	2.1e+06	0.00039	2.3e-06	5.9e+06	–
B2	–	–	0.0569	0.0581	–	–	–	0.017	4.4e-05	2.6e+06	0.052	8.3e-06	160000	–
B3	–	–	–	–	–	–	–	–	–	–	–	–	–	binds
B4	–	–	–	–	–	–	–	–	–	–	–	–	–	binds
